The target of experiment [1] is T1, recombinant human Claudin 18.2 protein (GenScript, Z03504) (human, UniProt P56856-2 1-261, limits assumed).
T1 construct: Bought recombinant protein
The experiment can be described thus: competition ELISA on coated recombinant human Claudin 18.2; competitor biotinylated IMAB362 (0.72 µg/ml). A general note: ELISA stands for enzyme-linked immunosorbent assay.

Experiment [2] concerns the target T2, human Claudin 18.2 expressed on cells (HEK293/human Claudin 18.2; CHO-K1/human Claudin 18.2) (human, UniProt P56856-2 1-261). The experiment can be described thus: cell-based or functional assay.
The target of experiment [3] is T2, human Claudin 18.2 expressed on cells …. Description: flow cytometry on HEK293 cells expressing human Claudin 18.2.
Experiment [4] has as its target T1, recombinant human Claudin 18.2 protein …. The experiment can be described thus: indirect ELISA, plate coated with recombinant human Claudin 18.2, anti-human IgG Fc-HRP detection.
Experiment [5] shares this target. Description: SPR Biacore 8K, antibody captured via Fc, human Claudin 18.2 protein as analyte.
Experiment [6] addresses T2, human Claudin 18.2 expressed on cells …. Description: cell-based or functional assay. This is another data set of the same source.

B1: AHP32919 (antibody, V domains shown)
VH: QVQLQESGGGVVQPGGSLRLSCAASQSIGLLSTMGWYRQAAGKQRELVATITRGGSTNYGEFVKGRFTISRDNAKNTVYLQMNSLKPEDTAVYYCTADESWLGTQSYWGRGTRVTVSS
VL: QAGLTQPPSASGTPGQGVTISCSGSSSNIGSNSVNWYQQLPGTAPKLLMHSNNERSSGVPDRFSGSKSGSSASLAISGLQSEDAADYFCGAWDDSLNGYVFGTGTKLTVL
As usually defined, the IC50 is the concentration at which inhibition is half-maximal. For orientation: EC50 means the concentration at which the effect is half-maximal. Usually Kd stands for a measure of binding affinity in units of concentration. Turning to B1, the IC50 in experiment [1] is 0.271 nM. Also, the “ADCC reporter gene assay (CHO-K1/Claudin 18.2 target cells, GS-J2C/CD16A 158V effector cells): EC50” value (shortened to “ADCC reporter gene assay … EC50”) in experiment [2] was around 0.439 nM. Also, the “ADCC reporter gene assay (CHO-K1/Claudin 18.2 target cells, GS-J2C/CD16A 158V effector cells): Top” value (“ADCC reporter gene assay … Top” below) in experiment [2] worked out at 199000. Besides, the EC50 is 6.04 nM in experiment [3] and 0.0788 nM in experiment [4]. Also, the Kd in experiment [5] is 7.91 nM. In addition, the “CDC on CHO-K1/human Claudin 18.2 cells: Top” value (“CDC” for short) in experiment [6] came to 96.3%.

B2: AHP33029 (antibody, V domains shown)
VH: QVQLVDSGGGLVQSGGSLRLTCAASQSIGLLSTMGWYRQAAGKQRELVATITRGGSTNYGEFVKGRFTISRDNAKNTVYLQMNSLKPEDTAVYYCTADESWLGTQSYWGRGTLVTVSS
VL: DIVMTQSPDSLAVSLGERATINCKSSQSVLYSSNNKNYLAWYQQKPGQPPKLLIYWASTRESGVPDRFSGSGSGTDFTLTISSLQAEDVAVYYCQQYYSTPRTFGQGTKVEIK
Consider B2, for which the IC50 in experiment [1] worked out at 0.319 nM. In experiment [2], the “ADCC reporter gene assay … EC50” value was 3.73 nM and the “ADCC reporter gene assay … Top” value came out at 358000. The midpoint of the response in experiment [3], the EC50, lay at 4.24 nM. Also, in experiment [4], the EC50 is 0.0746 nM. Further, the Kd in experiment [5] stood at 10.2 nM. Moreover, the “CDC” value in experiment [6] stood at 96.9%.

B3: AHP30826 (antibody, V domains shown)
VH: QVQLQQSGGGSVQAGGSLRLSCAASGTILSINAMGWYRQAPGKQRELVATITTGGNANYAHSVKGRFTISRDNAKNTVYLQMNNLKPEDTAVYYCNAEQVVVGFLQAYDVWGQGTTVTVSS
VL: DVVMTQSPLSLPVTLGQAASISCRSSQSLVHGDGNTYLNWIQQRPGQSPRRLIYKVSNRDSGVPDRFSGSGSGTDFTLKISRVEAEDVGVYYCMQGTHWPSTFGPGTKVDIK
For the molecule B3, in experiment [1], the IC50 is 0.276 nM. In experiment [2], the “ADCC reporter gene assay … EC50” value was found to be 0.684 nM and the “ADCC reporter gene assay … Top” value turned out to be 222000. This molecule also registered an EC50 in experiment [3] of 3.54 nM. For the same molecule, the EC50 in experiment [4] worked out at 0.0914 nM. Moreover, the Kd in experiment [5] turned out to be 7.82 nM. In addition, the “CDC” value in experiment [6] was found to be 96%.

B4: AHP29153 (antibody, V domains shown)
VH: QLQQVESGGGLVQPGGSLRLSCAASRNIGILSTMGWYRQAPGKQRELVATITRGGSTNYGEFVKGRFTISRDNAKNTVYLQMNSLKPEDTAVYYCNVDESWLGTQSYWGRGTTVTVSS
VL: QSVLTQPASVSGSPGQSITISCTGTSSDVGGYKYVSWYQQPPGKAPKLIIYEVTKRPSGVPDRFSGSKSGNTASLTVSGLQAEDEADYYCLSYAGSNNVFGTGTKLTVL
In the case of B4, the IC50 in experiment [1] was determined as 0.323 nM. Further, in experiment [2], the “ADCC reporter gene assay … EC50” value was 0.805 nM and the “ADCC reporter gene assay … Top” value stood at 283000. This molecule gave an EC50 in experiment [3] of 8.15 nM. Further, the EC50 in experiment [4] was found to be 0.125 nM. The Kd in experiment [5] was 9.96 nM. Besides, the “CDC” value in experiment [6] came to 96.3%.

B5: AHP32913 (antibody, V domains shown)
VH: QVQLMQSGGGLVQPGGSLRLSCAASRNIGILSTMGWYRQAPGKQRELVATITRGGSTNYGEFVKGRFTISRDNAKNTVYLQMNSLKPEDTAVYYCNVDESWLGTQSYWGRGTQVTVSS
VL: QAVVTQEPSLTVSPGGTVTLTCGSSTGPVTSGHYPHWYQQKPGQAPKTLIFDTSHKHPWTPAQFSGSLLGGKAALTLSGAHPEDEAEYYCLLSYSGVRVFGGGTQLIIL
In the case of B5, the IC50 in experiment [1] came out at 0.337 nM. Besides, in experiment [2], the “ADCC reporter gene assay … EC50” value was 8.12 nM and the “ADCC reporter gene assay … Top” value is 486000. Further, the response in experiment [3] was half-maximal at 4.16 nM (EC50). In addition, in experiment [4], the EC50 came to 0.111 nM. Also, in experiment [5], the Kd came to 9.44 nM. In experiment [6], the “CDC” value came out at 93%.

B6: AHP32982 (antibody, V domains shown)
VH: QVQLVQSGGGLVQPGGSLRLSCAASRNIGILSTMGWYRQAPGKQRELVATITRGGSTNYGEFVKGRFTISRDNAKNTVYLQMNSLKPEDTAVYYCNVDESWLGTQSYWGRGPLVTVSS
VL: DIVMTQSPSSVSASVGDRVTITCRASQGISSWLAWYQQKPGKAPKLLIYAASSLQSGVPSRFSGSGSGTDFTLTISSLQPEDFATYYCQQANSFPLTFGGGTKVEIK
In the case of B6, the IC50 in experiment [1] stood at 0.491 nM. Moreover, in experiment [2], the “ADCC reporter gene assay … EC50” value was 0.379 nM and the “ADCC reporter gene assay … Top” value is 216000. In experiment [3], the response was half-maximal at 5.91 nM (EC50). The EC50 in experiment [4] stood at 0.119 nM. In addition, the Kd in experiment [5] stood at 13.3 nM. Besides, the “CDC” value in experiment [6] stood at 95.5%.

B7: AHP31548 (antibody, V domains shown)
VH: QVQLMQSGGGLVQPGGSLRLSCAASRNIGILSTMGWYRQAPGKQRELVATITRGGSTNYGEFVKGRFTISRDNAKNTVYLQMNSLKPEDTAVYYCNVDESWLGTQSYWGRGTTVTVSS
VL: QSALTQPPSASGSPGQSVTISCTGTSSDIGTYNFVSWYQQHPGKAPKLIIYEVSKRPSGVPDRFSGSKSGNTASLTVSGLQAEDEADYYCKSYPRVFGTGTKLTAL
In the case of B7, the IC50 in experiment [1] is 0.265 nM. Moreover, in experiment [2], the “ADCC reporter gene assay … EC50” value was found to be 2.15 nM and the “ADCC reporter gene assay … Top” value is 463000. For the same molecule, in experiment [3], a half-maximal effect (EC50) was put at 3.08 nM. In experiment [4], the EC50 stood at 0.074 nM. For the same molecule, the Kd in experiment [5] worked out at 7.31 nM. The “CDC” value in experiment [6] is 94%.

B8: AHP33007 (antibody, V domains shown)
VH: QVQLVQSGGGLVQPGGSLRLSCAASRNIGILSTMGWYRQAPGKQRELVATITRGGSTNYGEFVKGRFTISRDNAKNTVYLQMNSLKPEDTAVYYCNVDESWLGTQSYWGRGPLVTVSS
VL: not shown
As for B8, the IC50 in experiment [1] came out at 0.805 nM. Further, in experiment [2], the “ADCC reporter gene assay … EC50” value came to 1.84 nM and the “ADCC reporter gene assay … Top” value is 295000. The EC50 in experiment [3] came out at 12.4 nM. Further, the EC50 in experiment [4] was determined as 0.139 nM. The Kd in experiment [5] amounted to 2.7 nM. In addition, the “CDC” value in experiment [6] is 92.7%.

The values above are taken from EP4786493A1 (Nanjing Probio Biotech Co., Ltd., dated 2026).
